Results: PMC3229241, “Neoamphimedine Circumvents Metnase-Enhanced DNA Topoisomerase IIα Activity Through ATP-Competitive Inhibition” (2011)

Substrate: Nc1ncnc2c1ncn2[C@@H]1O[C@H](COP(=O)(O)OP(=O)(O)OP(=O)(O)O)[C@@H](O)[C@H]1O
Test: malachite green ATP hydrolysis assay, Michaelis-Menten Km
Type: biochemical, Homo sapiens
Settings: Mg2+ N-terminal ATPase site

B1: Type IIα DNA topoisomerase (TopoIIα) (Homo sapiens) (protein)
chain: MEVSPLQPVNENMQVNKIKKNEDAKKRLSVERIYQKKTQLEHILLRPDTYIGSVELVTQQMWVYDEDVGINYREVTFVPGLYKIFDEILVNAADNKQRDPKMSCIRVTIDPENNLISIWNNGKGIPVVEHKVEKMYVPALIFGQLLTSSNYDDDEKKVTGGRNGYGAKLCNIFSTKFTVETASREYKKMFKQTWMDNMGRAGEMELKPFNGEDYTCITFQPDLSKFKMQSLDKDIVALMVRRAYDIAGSTKDVKVFLNGNKLPVKGFRSYVDMYLKDKLDETGNSLKVIHEQVNHRWEVCLTMSEKGFQQISFVNSIATSKGGRHVDYVADQIVTKLVDVVKKKNKGGVAVKAHQVKNHMWIFVNALIENPTFDSQTKENMTLQPKSFGSTCQLSEKFIKAAIGCGIVESILNWVKFKAQVQLNKKCSAVKHNRIKGIPKLDDANDAGGRNSTECTLILTEGDSAKTLAVSGLGVVGRDKYGVFPLRGKILNVREASHKQIMENAEINNIIKIVGLQYKKNYEDEDSLKTLRYGKIMIMTDQDQDGSHIKGLLINFIHHNWPSLLRHRFLEEFITPIVKVSKNKQEMAFYSLPEFEEWKSSTPNHKKWKVKYYKGLGTSTSKEAKEYFADMKRHRIQFKYSGPEDDAAISLAFSKKQIDDRKEWLTNFMEDRRQRKLLGLPEDYLYGQTTTYLTYNDFINKELILFSNSDNERSIPSMVDGLKPGQRKVLFTCFKRNDKREVKVAQLAGSVAEMSSYHHGEMSLMMTIINLAQNFVGSNNLNLLQPIGQFGTRLHGGKDSASPRYIFTMLSSLARLLFPPKDDHTLKFLYDDNQRVEPEWYIPIIPMVLINGAEGIGTGWSCKIPNFDVREIVNNIRRLMDGEEPLPMLPSYKNFKGTIEELAPNQYVISGEVAILNSTTIEISELPVRTWTQTYKEQVLEPMLNGTEKTPPLITDYREYHTDTTVKFVVKMTEEKLAEAERVGLHKVFKLQTSLTCNSMVLFDHVGCLKKYDTVLDILRDFFELRLKYYGLRKEWLLGMLGAESAKLNNQARFILEKIDGKIIIENKPKKELIKVLIQRGYDSDPVKAWKEAQQKVPDEEENEESDNEKETEKSDSVTDSGPTFNYLLDMPLWYLTKEKKDELCRLRNEKEQELDTLKRKSPSDLWKEDLATFIEELEAVEAKEKQDEQVGLPGKGGKAKGKKTQMAEVLPSPRGQRVIPRITIEMKAEAEKKNKKKIKNENTEGSPQEDGVELEGLKQRLEKKQKREPGTKTKKQTTLAFKPIKKGKKRNPWSDSESDRSSDESNFDVPPRETEPRRAATKTKFTMDLDSDEDFSDFDEKTDDEDFVPSDASPPKTKTSPKLSNKELKPQKSVVSDLEADDVKGSVPLSSSPPATHFPDETEITNPVPKKNVTVKKTAAKSQSSTSTTGAKKRAAPKGTKRDPALNSGVSQKPDPAKTKNRRKRKPSTSDDSDSNFEKIVSKAVTSKKSKGESDDFHMDFDSAVAPRAKSVRAKKPIKYLEESDEDDLF
notes: recombinant human TopoIIα
Protein B1 has a Km of 390 ± 50 µM.
